# Source: US20230348573A1 (KEIO UNIVERSITY, published 2023)
# B1: Ab326 (antibody, V domains shown)
# VH: EVQLVESGGGVVQPGRSLRLSCAASGFTFSHYPMHWVRQAPGRGLEWVAVISYDGSNQHYVDSVKGRFTISRDNSKNTLYLQMNSLRAEDTAVYFCASLITMIRGVPDYWGQGTLVTVSS
# VL: DIQMTQSPSSLSASVGDRVTITCRASQSISNYLNWYQQKPGKAPNLLIFAASSLQSGVPSRFSGSGSGTEFTLTISSLQPEDFAAYYCLQTYSTPRTFGQGTRLEIK
# B2: Ab864 (antibody, V domains shown)
# VH: EVQLVESGGGLVQPGRSLRLSCAASGFTFDDYAMHWVRQVPGKGLEWVSGISWNKGNIDYADSVKGRFTISRDNAKNSLYLQMNSLRPEDTGLYYCAKDCHYDSPGYFPNCLHSWGQGTLVTVSS
# VL: EIVMTQSPSSLSASVGDRVTITCRASQGINTYLAWYQQKPGKAPKLLIYTASTLQSGVPSRFSGSGSGTDFTLTISSLQPEDFATYYCQQVHSYPLTFGGGTKVEIK
# B3: Ab712 (antibody, V domains shown)
# VH: QVQLVQSGSELKKPGASVKISCKASGYTFINHAINWVRQAPGQGLEWMGWINTNTGNPTYAPGFTGRFVFSLDTSVSTAYLQISSLKAEDTAVYYCARIPIRDYDYDGSGYYYFLDYWGQGTLVTVSS
# VL: SYELTQDPAVSVALGQTVRITCQGDSLRSSSASWYQQKPGQAPVLVIYGKTNRPSGIPDRFSGSSSGNTASLTITGAQAEDEADYYCNSRDNSGNHPVVFGGGTKLTVL
# B4: Ab765 (antibody, V domains shown)
# VH: QVQLVESGGGVVQPGRSLRLSCAASGFTFSDYAIHWVRQAPGRGLEPVALISYDGNNKYYADSVKGRFTISRDNSKNVLYLQMNSLRADDTAVYYCARDAEGGWVAALDYWGQGTLVTVSS
# VL: QSALTQPRSVSGSPGQSVTISCTGTSSDVGGYNYVSWYQHHPGKAPKVMIYEVSKRPSGVPDRFSGSKSGTTASLTISGLQAEDEADYYCCSYAGTYPYVFGTGTKVTVL
# B5: Ab354 (antibody, V domains shown)
# VH: QVQLVQSGAEVKKPGASVTVSCKASGFLFTGYYMHWVRQAPGQGLEWMGWINPNSGASNYTRKFQGRVTMTRDTSISATYMKLSRLTSDDTAVYYCARDLAFSMVRGALDYWGQGTLVTVSS
# VL: QLVLTQPPSASGSPGQSVTISCTGTSSDVGGYNYVSWYQHHPGKAPKLMIYEVSKRPSGVPDRFSGSKSGNTASLTVSGLQAEDEADYYCNSYAGNNNWVFGTGTKVTVL
# B6: Ab863 (antibody, V domains shown)
# VH: EVQLVQSGAEVKKPGASVKVSCQASGYTFITYYMHWVRQAPGQGLEWMGIINPDGGSISYAQKFQGRVTMTRDTSTSTVYMELSSLRSEDTAVYYCARGLSPTFSSSWFDNWGLGTLVTVSS
# VL: DVVMTQSPATLSVSPGERATLSCRASQSVSSNLAWYQQKPGQAPRLLIYGASTRDTGIPARFSGSGSGTEFTLTISSLQSEDFAVYFCQQYKNWLLTFGGGTKVEIK
# B7: Ab803 (antibody, V domains shown)
# VH: EVQLVESGGGLVQPGRSLRVSCAASGFTFDDYAMHWVRQTPRKGLEWVAGISRNSAAIAYADSVKGRFTISRDNAKNSVFLQMNGLRADDTALYYCVKSPRYGWGSPDYSFDFWGRGTLVTVSS
# VL: DIQLTQSPSSLSASVGDRVTITCRASQNIGTYLNWYQQEPGKAPKLLIYAASSLQSGVPSRFSGSGSGTDFTLTISSLQPEDFATYCCQQSFTTPLTFGQGTKVEIK
# B8: Ab816 (antibody, V domains shown)
# VH: QVQLVQSGAEVKKPGESLMISCKASGYNFRNYWIAWVRQMPGKGLEWMGIIHPGDSDIRYRPSLQGHVTISADKSITTAYLQWGSLKASDTAMYYCTRITTDADSSGLFHYWGQGTLVTVSS
# VL: EIVLTQSPSTLSASVGDRVTITCRASQNIYTWLAWYQRKPGKAPKVLIYKASSLESGVPSRFSGSGSGTEFTLTISSLQPDDFATYYCQQYKSAWSFGQGTKVEIK
# B9: Ab496 (antibody, V domains shown)
# VH: EVQLVQSGPEVKKPGTSVKVSCKASGFIFTNSAVQWVRQARGQRLEWIGWIVVGSGNPNYAQKFQERVTITRDRSTSTAYMELSSLTSEDTAVYYCAAFPYYYDNSGSGPWGQGTLVTVSS
# VL: DIQLTQSPSSLSASVGDRVTITCQASQDIRNNLNWYQQIPGKAPKLLIYDASNLETGVPSRFSGSASGTDFTFTISSLQPEDVATYYCQQYANLPPFTFGPGTKVDIK
# B10: Ab159 (antibody, V domains shown)
# VH: QVQLVESGGGLVKPGGSLRLSCAASGFTFNNAWMSWVRQAPGKGLEWVGRIKSKTDGGTTDYAAPVKGRFTFSRDDSKNTLYLQMSSLKTEDTALYYCTTADYDILTGTPASPYWGQGTLVTVSS
# VL: DIQMTQSPSSLSASVGDRVTITCRASQSITNYLNWYQQKPGKAPKFLIYAASSLQGGVPSRFRGSGSGTDFTLTISSLQPEDFATYYCQQTYSTLWTFGQGTKVEIK
# B11: Ab847 (antibody, V domains shown)
# VH: EVQLVQSGAEVKKPGASVKVSCKASGYTFTSYDIIWVRQATGQGLEWMGWMDPSRGTTGYAQTFQGRVTMTRDTSISTAYLELNSLTSEDTAVYYCVAHIVVLDRWFDPWGQGTLVTVSS
# VL: DIVMTQSPSSLSASVGDRVTITCQASQDIGNFLNWCQQKPGQAPKVLIYGASNLETGVPSRFSGSGSGTDFTFTISSLQPEDIATYYCQHYDNFPPRFTFGQGTKLDIK
# B12: Ab830 (antibody, V domains shown)
# VH: QVQLVQSGAEVKKPGSSVKVSCKTSGGTFTNYTISWVRQAPGQGLEWMGRIIPIFDIVNYAQKFQGRVTITADKSTSTTYMELSSLRSEDTAVYYCARDGVLYDTSGYLYDAFDIWGQGTMVTVSS
# VL: DIQMTQSPSSLSASVGDRVTITCRASQGINNYLAWFQQKPGKAPKSLIYAASSLQSGVPPKFSGSGSGTDFTLTISSLQPEDFATYYCLHYNSYPWTFGQGTKVEIK
# B13: Ab188 (antibody, V domains shown)
# VH: EVQLVESGGGLVQPGGSLRLSCAASGFTFINYKMNWVRQAPGKGLEWVSYISSGSDAIYYADSVKGRFTISRDNAKNSLYLQMNSLRDEDTALYYCARGGGYNYGECMDVWGQGTTVTVSS
# VL: not shown
# B14: Ab709TK (antibody, V domains shown)
# VH: QVQLVESGGGVVQPGKSLRLSCAASGFTFSSYAMHWVRLAPGKGLEWVAVISPDGKNKYYVDSVKGRSTISRDNSKNTLYLLMNSLRAEDTAVYYCATTQSLWFGQFYYIYGMDVWGQGTTVTVSS
# VL: QSVLTQPHSVSESPGKTITISCTGSSGSIASNYVQWYQQRPGSAPTTVIYEDTERPSGVPDRFSGSIDSSSNSASLTISGLKTEDEADYYCQSYDSNNVVFGGGTKLTVL
# Target: spike protein of SARS-CoV-2 α strain on pseudovirus (SARS-CoV-2 (α strain))
# Test: cell-based or functional assay
row,Binder,IC50 of pseudovirus infection (luciferase) [µg/mL]
1,B1,0.0493
2,B2,0.0098
3,B3,0.103
4,B4,0.0166
5,B5,0.0937
6,B6,0.0301
7,B7,0.402
8,B8,0.0175
9,B9,0.0169
10,B10,0.0119
11,B11,0.0821
12,B12,0.0374
13,B13,0.248
14,B14,0.236

# Target: spike protein of SARS-CoV-2 β strain on pseudovirus (SARS-CoV-2 (β strain))
# Test: cell-based or functional assay
row,Binder,IC50 of pseudovirus infection (luciferase) [µg/mL]
1,B2,0.0044
2,B3,0.0077
3,B4,0.0045
4,B7,0.0104
5,B8,0.0095
6,B10,0.00537
7,B11,0.0103
8,B12,0.0569
9,B13,0.0179
10,B14,0.0058

# Target: spike protein of SARS-CoV-2 B.1.1.482 strain on pseudovirus (SARS-CoV-2 (B.1.1.482 strain))
# Test: cell-based or functional assay
row,Binder,IC50 of pseudovirus infection (luciferase) [µg/mL]
1,B2,0.0234
2,B3,0.0164
3,B4,0.0117
4,B5,0.277
5,B7,0.144
6,B8,0.0396
7,B9,0.0506
8,B10,0.0233
9,B11,0.0548
10,B12,0.0042
11,B13,0.171
12,B14,0.172

# Target: spike protein of SARS-CoV-2 γ strain on pseudovirus (SARS-CoV-2 (γ strain))
# Test: cell-based or functional assay
row,Binder,IC50 of pseudovirus infection (luciferase) [µg/mL]
1,B3,0.0022
2,B4,0.0144
3,B7,0.0106
4,B8,0.0018
5,B10,0.00369
6,B11,0.0502
7,B12,0.0011
8,B14,0.0033

# Target: spike protein of SARS-CoV-2 δ strain on pseudovirus (SARS-CoV-2 (δ strain))
# Test: cell-based or functional assay
row,Binder,IC50 of pseudovirus infection (luciferase) [µg/mL]
1,B1,0.0184
2,B2,0.0172
3,B3,0.0799
4,B4,0.0269
5,B5,0.0715
6,B7,0.0639
7,B8,0.0239
8,B9,0.00984
9,B10,0.13
10,B11,0.0422
11,B12,0.0554
12,B13,0.139
13,B14,0.0586
